This is an account of results in US20210017226A1, “METHOD OF GENERATING INTERACTING PEPTIDES” (Peption, LLC, priority 2017, published 2021).

Test [1] has as its target T1, PDGF-β target sequence (PTD10, […]) (Homo sapiens, UniProt P01127).
T1 construct: […]; purchased Peptide 2.0
The test is described as follows: Dot blot to detect the PDGF-β target sequence PTD10. It counts as binding. The conditions noted are these: beta sheet target. How it is done:
(§1) Finally, the blot was incubated with the chromogenic substrates.

For test [2], the target named is alkaline phosphatase target sequence (PTD8, […]) (Escherichia coli, UniProt P00634). The conditions noted are these: dot blot, coil-beta sheet-coil target.
Procedure: For dot blot analysis, 1 μl (2.5 μg) or 2 μl (5 μg) of samples were spotted onto the nitrocellulose (NC) membrane and dried completely. Then, non-specific sites were blocked by soaking the membrane in the blocking solution made for NC membranes [Thermo Fisher Scientific, WesternBreeze™ Blocker/Diluent (Part A and B), catalog #WB7050]. The membrane was washed twice with water (1 ml per cm^2 membrane), and incubated with the 1st antibody (Ab) in a binding/wash (BW) buffer [50 mM sodiumphosphate, pH 8.0, 300 mM NaCl, and 0.01% Tween 20] for 1 h. The membrane was washed 4 times (for 2 minutes per wash) with the wash buffer [Thermo Fisher Scientific, WesternBreeze™ Wash Solution, catalog #WB7003]. If the 1st oligopeptide was Anti-Cas9 Ab-HRP conjugate [Thermo Fisher Scientific, catalog #MAC133P] or the peptide-AP fusions, the membrane was washed twice with water, and incubated with the chromogenic substrates, Chromogenic Substrate (TMB) [Thermo Fisher Scientific, catalog #WP20004] for HRP and NBT/BCIP substrate solution for AP [Thermo Fisher Scientific, catalog #34042]. Otherwise, the membrane was incubated with in the blocking solution for 1 h. To detect His-tagged peptide and proteins, the Anti-6His Ab-HRP conjugate [Thermo Fisher Scientific, catalog 46-0707] was used. Then the membrane was washed four times with the wash buffer and two times with water. Finally, the blot was incubated with the chromogenic substrates.
For test [3], the system named is whole proteome of E. coli BL21 Star DE3. The experiment in a line: Western blot to detect binders in the whole proteome of E. coli BL21 Star DE3 (specificity). It counts as binding. On the technique in general: Immunoblotting shows a protein as a band on a membrane.
Source text: For the western blot analysis, the protein samples were resolved in 4-20% gradient SDS-PAGE gel, transferred to NC membrane, and subjected to the western blot analysis using the same method for the dot blot analysis.
The target in test [4] is T2, Cas9 target sequence (PTD12, EKLYLYYLQ, Helix: E813 to Q821) (Streptococcus pyogenes serotype M1, UniProt Q99ZW2).
T2 construct: […]; purchased Peptide 2.0
The experiment in a line: Dot blot to detect the Cas9 target sequence peptide PTD12. It counts as binding. The conditions noted are these: for interaction of His-tagged synthetic CAAP oligopeptide with the target peptide PTD12: dot blot, peptide as 1st Ab, Anti-6His Ab-HRP detection. How it is done: as §1
For the image processing, we used Adobe Photoshop 7.0. Quantitative image analysis of the digital images was carried out using measuring tools of imaging software ImageJ (Schneider et al. 2012). Image analysis results were calculated by averaging data from three independent experiments.

The target of test [5] is T3, Cas9 protein (Streptococcus pyogenes serotype M1, UniProt Q99ZW2).
T3 construct: made in house; host or cells: E. coli BL21 Star (DE3)
T3 sequence (Q99ZW2 whole entry): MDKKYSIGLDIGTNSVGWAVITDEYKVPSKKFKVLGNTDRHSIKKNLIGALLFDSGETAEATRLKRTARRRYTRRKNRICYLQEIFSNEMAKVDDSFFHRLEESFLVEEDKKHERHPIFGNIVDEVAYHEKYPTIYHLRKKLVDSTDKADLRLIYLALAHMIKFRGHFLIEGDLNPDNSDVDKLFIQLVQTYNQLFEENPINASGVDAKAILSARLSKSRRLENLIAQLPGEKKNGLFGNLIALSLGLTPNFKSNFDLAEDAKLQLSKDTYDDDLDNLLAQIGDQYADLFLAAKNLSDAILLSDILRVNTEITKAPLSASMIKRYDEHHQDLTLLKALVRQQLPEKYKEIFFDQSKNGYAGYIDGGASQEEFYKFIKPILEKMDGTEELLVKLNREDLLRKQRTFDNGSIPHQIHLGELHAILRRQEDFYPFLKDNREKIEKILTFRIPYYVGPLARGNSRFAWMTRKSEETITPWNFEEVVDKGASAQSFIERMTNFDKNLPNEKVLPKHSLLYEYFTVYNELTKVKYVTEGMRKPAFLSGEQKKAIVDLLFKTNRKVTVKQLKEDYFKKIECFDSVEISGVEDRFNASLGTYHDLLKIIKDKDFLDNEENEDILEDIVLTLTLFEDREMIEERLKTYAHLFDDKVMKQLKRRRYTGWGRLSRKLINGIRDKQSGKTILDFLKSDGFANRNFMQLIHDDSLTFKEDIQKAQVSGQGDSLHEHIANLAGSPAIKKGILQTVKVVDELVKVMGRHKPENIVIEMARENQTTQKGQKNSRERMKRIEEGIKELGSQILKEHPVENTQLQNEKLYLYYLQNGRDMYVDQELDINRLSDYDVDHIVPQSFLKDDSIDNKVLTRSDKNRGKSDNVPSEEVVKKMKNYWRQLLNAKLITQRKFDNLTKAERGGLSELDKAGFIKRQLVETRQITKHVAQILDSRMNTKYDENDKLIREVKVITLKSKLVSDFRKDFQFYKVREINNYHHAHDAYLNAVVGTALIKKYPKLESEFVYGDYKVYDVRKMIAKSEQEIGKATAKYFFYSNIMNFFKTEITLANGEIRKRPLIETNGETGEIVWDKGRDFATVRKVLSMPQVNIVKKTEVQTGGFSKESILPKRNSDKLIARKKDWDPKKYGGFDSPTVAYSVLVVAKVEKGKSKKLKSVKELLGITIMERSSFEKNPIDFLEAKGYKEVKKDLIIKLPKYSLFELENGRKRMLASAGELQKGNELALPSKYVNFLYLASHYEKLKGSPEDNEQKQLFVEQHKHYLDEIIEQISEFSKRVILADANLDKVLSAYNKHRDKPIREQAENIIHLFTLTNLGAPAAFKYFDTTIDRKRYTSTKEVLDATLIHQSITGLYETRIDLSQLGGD
The test is described as follows: Dot blot to detect whole Cas9 protein (non-denatured). It counts as binding. The conditions noted are these: Cas9 (no tag). How it is done:
as §1

Test [6] addresses T3, Cas9 protein. The experiment in a line: Western blot to detect whole Cas9 protein (denatured). Format: binding. The conditions noted are these: Cas9 (no tag), 4-20% SDS-PAGE. How it is done:
as §1

Test [7] deals with control peptide (PTD8, unrelated peptide) (Escherichia coli, UniProt P00634). The conditions noted are these: dot blot, unrelated target (negative control).
Procedure: For dot blot analysis, 1 μl (2.5 μg) or 2 μl (5 μg) of samples were spotted onto the nitrocellulose (NC) membrane and dried completely. Then, non-specific sites were blocked by soaking the membrane in the blocking solution made for NC membranes [Thermo Fisher Scientific, WesternBreeze™ Blocker/Diluent (Part A and B), catalog #WB7050]. The membrane was washed twice with water (1 ml per cm^2 membrane), and incubated with the 1st antibody (Ab) in a binding/wash (BW) buffer [50 mM sodiumphosphate, pH 8.0, 300 mM NaCl, and 0.01% Tween 20] for 1 h. The membrane was washed 4 times (for 2 minutes per wash) with the wash buffer [Thermo Fisher Scientific, WesternBreeze™ Wash Solution, catalog #WB7003]. If the 1st oligopeptide was Anti-Cas9 Ab-HRP conjugate [Thermo Fisher Scientific, catalog #MAC133P] or the peptide-AP fusions, the membrane was washed twice with water, and incubated with the chromogenic substrates, Chromogenic Substrate (TMB) [Thermo Fisher Scientific, catalog #WP20004] for HRP and NBT/BCIP substrate solution for AP [Thermo Fisher Scientific, catalog #34042]. Otherwise, the membrane was incubated with in the blocking solution for 1 h. To detect His-tagged peptide and proteins, the Anti-6His Ab-HRP conjugate [Thermo Fisher Scientific, catalog 46-0707] was used. Then the membrane was washed four times with the wash buffer and two times with water. […]
In another test the target is T4, Cas9 nuclease (Streptococcus pyogenes serotype M1, UniProt Q99ZW2).
T4 construct: made in house; host or cells: E. coli BL21 Star (DE3)
T4 sequence (Q99ZW2 whole entry): as above
The experiment in a line: Cas9 activity assay in vitro (RNA-guided cleavage of 510 bp human AAVS1 DNA). Format: biochemical. The text has this:
The sgRNA targeting human AAVS1 region (target sequence […] (SEQ ID NO: 36), PAM sequence underlined) was synthesized by in vitro transcription using a 118 bp PCR-assembled DNA fragment AAVS1_T23826 as template, following the manufacturer's protocol [Thermo Fisher Scientific, TranscriptAid T7 High Yield Transcription Kit, catalog #K0441]. The sgRNA product was purified using the GeneJET RNA Purification Micro Column [Thermo Fisher Scientific, catalog #K0841].
A 510 bp human AAVS1 region was amplified from HEK293 genomic DNA by PCR using a primer set (CH1161 and CH1162) and used as a target DNA for the in vitro CRISPR/Cas9 assay. Performance of the Cas9 protein was assessed in various concentrations of Cas9 [100, 50, 25, 12.5, and 0 ng] in presence or absence of sgRNA and peptides (PTD14 (SEQ ID NO: 11) and PTD16 (SEQ ID NO: 30)) in the 1× buffer K [20 mM Tris-HCl, pH 8.5, 10 mM MgCl2, 1 mM Dithiothreitol (DTT), and 100 mM KCl]. The PTD16 (SEQ ID NO: 30) was used as an unrelated peptide control. The reaction mixture was incubated at 37° C. for 15 minutes. The reaction was stopped by adding a stop buffer [1 mM Tris-HCl (pH 7.5), 10 mM EDTA, 6.5% (w/v) Sucrose, 0.03% (w/v) Bromophenol Blue] and heat inactivated at 75° C. for 5 minutes. The reaction samples were resolved in 4% agarose gel.

“Also recorded” adds a separate entry of the source.

Take “DLDYAQLRDKCYPENEDRLQSYDLDGSGSHHHHHH [PTD18, His-tagged CAAP oligopeptide dimer, parallel and antiparallel, against PDGF-β]”: the “interaction with the PDGF-β target oligopeptide PTD10” value in test [1] was “bound to the target”.

On to “EDRLQSYDLDGSGSHHHHHH [PTD17, His-tagged CAAP oligopeptide monomer, antiparallel, against PDGF-β]”, for which the “interaction with the PDGF-β target oligopeptide PTD10” value in test [1] is “no detectable interaction”.

For “EYRLYLRALCYPENLSRAYLSYEGSGSHHHHHH [PTD16]”, in test [2], the “interaction with the AP target oligopeptide PTD8” value is “bound to the target”.

As to GSGSHHHHHH [PTD20, reference compound], the “interaction with the PDGF-β target oligopeptide PTD10” value in test [1] is given as “no detectable interaction”. In addition, in test [2], the “interaction with the AP target oligopeptide PTD8” value was “no detectable interaction”.

LEQIKIRLFGSGSHHHHHH [PTD13]: in test [3], the “number of major bands detected in E. coli whole cell lysate” value is listed as “one” and the “number of minor bands detected in E. coli whole cell lysate” value was 2. In addition, the “interaction of His-tagged synthetic CAAP oligopeptide with the target peptide PTD12” value in test [4] was “could interact; also recorded: detected”. The “detection of whole Cas9 protein in dot blot” value in the test with Cas9 protein [5] was “unable to detect”. The “detection of whole Cas9 protein in western blot” value with Cas9 protein [6] is “unable to detect”. Also, the “interaction of His-tagged synthetic CAAP oligopeptide with the control peptide PTD8” value in test [7] is on record as “no interaction”.

As for “LLQVDVILLCYPENLEQIKIRLFGSGSHHHHHH [PTD14]”, in test [3], the “number of major bands detected in E. coli whole cell lysate” value is on record as “one” and the “number of minor bands detected in E. coli whole cell lysate” value is recorded as 4. Further, in test [4] (dot blot densitometry, dimer vs monomer), the “strength of interaction with PTD12 relative to monomer PTD13” value is “stronger (two-fold)”. Further, the “interaction of His-tagged synthetic CAAP oligopeptide with the target peptide PTD12” value in test [4] is “could interact”. In addition, the “effect on RNA-guided DNA cleavage by Cas9 nuclease” value with Cas9 nuclease (510 bp AAVS1 DNA, 37° C. 15 minutes, PTD16 as unrelated peptide control) was “no significant effect”. Besides, the “non-specific DNA binding activity of the Cas9 protein directed by the peptide” value with Cas9 nuclease (presence or absence of gRNA, various Cas9 concentrations) is recorded as “significant induction; also recorded: very strong”. Besides, the “detection of whole Cas9 protein in dot blot” value with Cas9 protein [5] was “able to detect”. The “detection of whole Cas9 protein in western blot” value in the test with Cas9 protein [6] was “able to detect”. The “interaction of His-tagged synthetic CAAP oligopeptide with the control peptide PTD8” value in test [7] is “no interaction”.

For the sequence LSRAYLSYEGSGSHHHHHH [PTD15], the “interaction with the AP target oligopeptide PTD8” value in test [2] is “no detectable interaction”.
